# Test system: Escherichia coli TOP10
# Test: shrunken log2 fold change of peptide-encoding DNA abundance (4.5 h post-induction vs induction); higher = less antimicrobial activity (less host growth inhibition)
# Settings: time post-induction: 4.5 h; library: site-saturation at positions 5, 18, 19, 20
# 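Further: peptides expressed intracellularly from a pBAD plasmid library in pooled LB shake-flask culture, induced with 0.3% L-arabinose, DNA abundance read by NGS, three biological replicates, DESeq2 with apeglm shrinkage.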
row,Sequence,shrunken log2 fold change
1,RRIRPRPPRLPRPRPRPEADPRP,0.0865
2,RRIRMRPPRLPRPRPRPMEDPRP,0.0119
3,RRIRTRPPRLPRPRPRPLSTPRP,-0.386
4,RRIRERPPRLPRPRPRPHRKPRP,-0.0945
5,RRIRWRPPRLPRPRPRPHYEPRP,-0.209
6,RRIRWRPPRLPRPRPRPAMRPRP,1.1
7,RRIRFRPPRLPRPRPRPMNLPRP,-0.623
8,RRIRARPPRLPRPRPRPILRPRP,0.0733
9,RRIRWRPPRLPRPRPRPTIHPRP,0.13
10,RRIRLRPPRLPRPRPRPYMIPRP,-0.449
11,RRIRRRPPRLPRPRPRPIDYPRP,-0.029
12,RRIRCRPPRLPRPRPRPGMDPRP,-0.0572
13,RRIRWRPPRLPRPRPRPRIPPRP,0.0219
14,RRIRERPPRLPRPRPRPGSAPRP,0.151
15,RRIRFRPPRLPRPRPRPGTRPRP,0.208
16,RRIRARPPRLPRPRPRPLMWPRP,0.481
17,RRIRKRPPRLPRPRPRPHIMPRP,-0.0414
18,RRIRPRPPRLPRPRPRPLEFPRP,-0.241
19,RRIRPRPPRLPRPRPRPPTLPRP,0.129
20,RRIRPRPPRLPRPRPRPKFWPRP,0.414
21,RRIRHRPPRLPRPRPRPALIPRP,0.0852
22,RRIRWRPPRLPRPRPRPICMPRP,-0.242

row,Sequence,shrunken log2 fold change
1,RRIRWRPPRLPRPRPRPFTPPRP,-0.0823
2,RRIRDRPPRLPRPRPRPFFFPRP,0.483
3,RRIRSRPPRLPRPRPRPQLFPRP,0.309
4,RRIRMRPPRLPRPRPRPVPMPRP,0.44
5,RRIRHRPPRLPRPRPRPNYWPRP,-0.358
6,RRIRLRPPRLPRPRPRPTERPRP,-0.189
7,RRIRRRPPRLPRPRPRPQKGPRP,-0.138
8,RRIRIRPPRLPRPRPRPIGAPRP,-0.0926
9,RRIRHRPPRLPRPRPRPEGMPRP,-0.0777
10,RRIRARPPRLPRPRPRPPRFPRP,1.13
11,RRIRWRPPRLPRPRPRPCDFPRP,0.123
12,RRIRSRPPRLPRPRPRPASKPRP,0.019
13,RRIRVRPPRLPRPRPRPHKQPRP,0.0253
14,RRIRHRPPRLPRPRPRPQFSPRP,-0.139
15,RRIRRRPPRLPRPRPRPIPKPRP,0.0997
16,RRIRERPPRLPRPRPRPMANPRP,0.0745
17,RRIRGRPPRLPRPRPRPDCYPRP,0.191
18,RRIRMRPPRLPRPRPRPMLTPRP,2.52
19,RRIRCRPPRLPRPRPRPCVIPRP,-0.334
20,RRIRVRPPRLPRPRPRPLMDPRP,-0.0628
21,RRIRARPPRLPRPRPRPDIIPRP,0.363
22,RRIRHRPPRLPRPRPRPWTDPRP,-0.0171

row,Sequence,shrunken log2 fold change
1,RRIRPRPPRLPRPRPRPLDDPRP,0.0437
2,RRIRTRPPRLPRPRPRPRIWPRP,0.104
3,RRIRARPPRLPRPRPRPAQEPRP,0.582
4,RRIRHRPPRLPRPRPRPNLTPRP,-0.588
5,RRIRLRPPRLPRPRPRPHDRPRP,-0.132
6,RRIRLRPPRLPRPRPRPTMIPRP,-0.164
7,RRIRLRPPRLPRPRPRPAELPRP,-0.172
8,RRIRMRPPRLPRPRPRPLDDPRP,3.25
9,RRIRHRPPRLPRPRPRPSYLPRP,-0.683
10,RRIRTRPPRLPRPRPRPQPMPRP,0.267
11,RRIRRRPPRLPRPRPRPGSSPRP,0.103
12,RRIRMRPPRLPRPRPRPSLMPRP,0.428
13,RRIRARPPRLPRPRPRPASWPRP,0.537
14,RRIRHRPPRLPRPRPRPLRWPRP,0.3
15,RRIRDRPPRLPRPRPRPSIVPRP,-0.0831
16,RRIRDRPPRLPRPRPRPFSWPRP,0.198
17,RRIRFRPPRLPRPRPRPSYCPRP,-0.345
18,RRIRKRPPRLPRPRPRPPSPPRP,0.588
19,RRIRCRPPRLPRPRPRPSRAPRP,0.113
20,RRIRRRPPRLPRPRPRPQMLPRP,0.246
21,RRIRMRPPRLPRPRPRPGPFPRP,0.222
22,RRIRKRPPRLPRPRPRPNVAPRP,0.387

row,Sequence,shrunken log2 fold change
1,RRIRLRPPRLPRPRPRPYGNPRP,0.0303
2,RRIRKRPPRLPRPRPRPACSPRP,0.341
3,RRIRPRPPRLPRPRPRPYNYPRP,-0.446
4,RRIRIRPPRLPRPRPRPITMPRP,-1.08
5,RRIRGRPPRLPRPRPRPRLCPRP,1.19
6,RRIRPRPPRLPRPRPRPLYYPRP,-0.985
7,RRIRMRPPRLPRPRPRPTGDPRP,1.3
8,RRIRTRPPRLPRPRPRPWGNPRP,-0.602
9,RRIRGRPPRLPRPRPRPCGMPRP,0.0775
10,RRIRHRPPRLPRPRPRPIGTPRP,-0.0693
11,RRIRNRPPRLPRPRPRPQRMPRP,0.0535
12,RRIRTRPPRLPRPRPRPYSLPRP,-0.186
13,RRIRSRPPRLPRPRPRPWKCPRP,-0.0598
14,RRIRFRPPRLPRPRPRPTQEPRP,0.321
15,RRIRLRPPRLPRPRPRPSNTPRP,-0.624
16,RRIRNRPPRLPRPRPRPKNWPRP,0.168
17,RRIRWRPPRLPRPRPRPWGEPRP,0.039
18,RRIRVRPPRLPRPRPRPLNEPRP,-0.0647
19,RRIRNRPPRLPRPRPRPHNAPRP,-0.175
20,RRIRLRPPRLPRPRPRPAMAPRP,0.00127
21,RRIRSRPPRLPRPRPRPSDYPRP,-0.87
22,RRIRPRPPRLPRPRPRPLETPRP,0.151

row,Sequence,shrunken log2 fold change
1,RRIRPRPPRLPRPRPRPFNNPRP,-0.836
2,RRIRSRPPRLPRPRPRPDLHPRP,-0.0732
3,RRIRDRPPRLPRPRPRPPLNPRP,0.0565
4,RRIRCRPPRLPRPRPRPPLCPRP,0.674
5,RRIRRRPPRLPRPRPRPSDTPRP,-0.0536
6,RRIRMRPPRLPRPRPRPTMDPRP,0.306
7,RRIRSRPPRLPRPRPRPWATPRP,-0.102
8,RRIRVRPPRLPRPRPRPRDAPRP,0.422
9,RRIRYRPPRLPRPRPRPLTCPRP,-0.566
10,RRIRERPPRLPRPRPRPCCRPRP,0.0107
11,RRIRWRPPRLPRPRPRPIHLPRP,-0.0188
12,RRIRCRPPRLPRPRPRPWGFPRP,0.248
13,RRIRVRPPRLPRPRPRPKPEPRP,0.326
14,RRIRHRPPRLPRPRPRPGCSPRP,-0.08
15,RRIRVRPPRLPRPRPRPWWWPRP,0.0767
16,RRIRFRPPRLPRPRPRPCIIPRP,-0.568
17,RRIRIRPPRLPRPRPRPTHVPRP,-0.0979
18,RRIRPRPPRLPRPRPRPDGLPRP,-0.117
19,RRIRNRPPRLPRPRPRPWHEPRP,-0.454
20,RRIRVRPPRLPRPRPRPVTCPRP,-0.155
21,RRIRERPPRLPRPRPRPRIAPRP,-0.246
